Source: patent US20240167007A1 (RHEINISCHE FRIEDRICH WILHELMS UNIVERSIT T BONN, published 2024)

Experiments:
[1] = target: mannose 6-phosphate (M6P) receptor (MPR300) on human hepatoma cells (HuH7) (human), P11717; assay: cell-based or functional assay
[2] = target: the molecule itself; assay: size exclusion chromatography (Superdex 200), pH 7.0; self-association
Experimental: The indicated hASA-variants were separated by size exclusion chromatography using a Superdex 200 column (Amersham Pharmacia) linked to an Äkta FPLC system (GE Healthcare). The buffer was 150 mM NaCl, 20 mM Bis-Tris, pH 7.0. Fractions (0.5 ml) were collected and analysed on ASA activity using p-nitrocatechol sulfate as a substrate. Elution profiles of the four indicated hASA-variants are superimposed. While wildtype hASA presents as a dimer at neutral pH, E424A-mutants form octamers.

mannose 6-phosphate (M6P) receptor (MPR300) on human hepatoma cells (HuH7) (human), P11717, sequence (P11717 41-2491): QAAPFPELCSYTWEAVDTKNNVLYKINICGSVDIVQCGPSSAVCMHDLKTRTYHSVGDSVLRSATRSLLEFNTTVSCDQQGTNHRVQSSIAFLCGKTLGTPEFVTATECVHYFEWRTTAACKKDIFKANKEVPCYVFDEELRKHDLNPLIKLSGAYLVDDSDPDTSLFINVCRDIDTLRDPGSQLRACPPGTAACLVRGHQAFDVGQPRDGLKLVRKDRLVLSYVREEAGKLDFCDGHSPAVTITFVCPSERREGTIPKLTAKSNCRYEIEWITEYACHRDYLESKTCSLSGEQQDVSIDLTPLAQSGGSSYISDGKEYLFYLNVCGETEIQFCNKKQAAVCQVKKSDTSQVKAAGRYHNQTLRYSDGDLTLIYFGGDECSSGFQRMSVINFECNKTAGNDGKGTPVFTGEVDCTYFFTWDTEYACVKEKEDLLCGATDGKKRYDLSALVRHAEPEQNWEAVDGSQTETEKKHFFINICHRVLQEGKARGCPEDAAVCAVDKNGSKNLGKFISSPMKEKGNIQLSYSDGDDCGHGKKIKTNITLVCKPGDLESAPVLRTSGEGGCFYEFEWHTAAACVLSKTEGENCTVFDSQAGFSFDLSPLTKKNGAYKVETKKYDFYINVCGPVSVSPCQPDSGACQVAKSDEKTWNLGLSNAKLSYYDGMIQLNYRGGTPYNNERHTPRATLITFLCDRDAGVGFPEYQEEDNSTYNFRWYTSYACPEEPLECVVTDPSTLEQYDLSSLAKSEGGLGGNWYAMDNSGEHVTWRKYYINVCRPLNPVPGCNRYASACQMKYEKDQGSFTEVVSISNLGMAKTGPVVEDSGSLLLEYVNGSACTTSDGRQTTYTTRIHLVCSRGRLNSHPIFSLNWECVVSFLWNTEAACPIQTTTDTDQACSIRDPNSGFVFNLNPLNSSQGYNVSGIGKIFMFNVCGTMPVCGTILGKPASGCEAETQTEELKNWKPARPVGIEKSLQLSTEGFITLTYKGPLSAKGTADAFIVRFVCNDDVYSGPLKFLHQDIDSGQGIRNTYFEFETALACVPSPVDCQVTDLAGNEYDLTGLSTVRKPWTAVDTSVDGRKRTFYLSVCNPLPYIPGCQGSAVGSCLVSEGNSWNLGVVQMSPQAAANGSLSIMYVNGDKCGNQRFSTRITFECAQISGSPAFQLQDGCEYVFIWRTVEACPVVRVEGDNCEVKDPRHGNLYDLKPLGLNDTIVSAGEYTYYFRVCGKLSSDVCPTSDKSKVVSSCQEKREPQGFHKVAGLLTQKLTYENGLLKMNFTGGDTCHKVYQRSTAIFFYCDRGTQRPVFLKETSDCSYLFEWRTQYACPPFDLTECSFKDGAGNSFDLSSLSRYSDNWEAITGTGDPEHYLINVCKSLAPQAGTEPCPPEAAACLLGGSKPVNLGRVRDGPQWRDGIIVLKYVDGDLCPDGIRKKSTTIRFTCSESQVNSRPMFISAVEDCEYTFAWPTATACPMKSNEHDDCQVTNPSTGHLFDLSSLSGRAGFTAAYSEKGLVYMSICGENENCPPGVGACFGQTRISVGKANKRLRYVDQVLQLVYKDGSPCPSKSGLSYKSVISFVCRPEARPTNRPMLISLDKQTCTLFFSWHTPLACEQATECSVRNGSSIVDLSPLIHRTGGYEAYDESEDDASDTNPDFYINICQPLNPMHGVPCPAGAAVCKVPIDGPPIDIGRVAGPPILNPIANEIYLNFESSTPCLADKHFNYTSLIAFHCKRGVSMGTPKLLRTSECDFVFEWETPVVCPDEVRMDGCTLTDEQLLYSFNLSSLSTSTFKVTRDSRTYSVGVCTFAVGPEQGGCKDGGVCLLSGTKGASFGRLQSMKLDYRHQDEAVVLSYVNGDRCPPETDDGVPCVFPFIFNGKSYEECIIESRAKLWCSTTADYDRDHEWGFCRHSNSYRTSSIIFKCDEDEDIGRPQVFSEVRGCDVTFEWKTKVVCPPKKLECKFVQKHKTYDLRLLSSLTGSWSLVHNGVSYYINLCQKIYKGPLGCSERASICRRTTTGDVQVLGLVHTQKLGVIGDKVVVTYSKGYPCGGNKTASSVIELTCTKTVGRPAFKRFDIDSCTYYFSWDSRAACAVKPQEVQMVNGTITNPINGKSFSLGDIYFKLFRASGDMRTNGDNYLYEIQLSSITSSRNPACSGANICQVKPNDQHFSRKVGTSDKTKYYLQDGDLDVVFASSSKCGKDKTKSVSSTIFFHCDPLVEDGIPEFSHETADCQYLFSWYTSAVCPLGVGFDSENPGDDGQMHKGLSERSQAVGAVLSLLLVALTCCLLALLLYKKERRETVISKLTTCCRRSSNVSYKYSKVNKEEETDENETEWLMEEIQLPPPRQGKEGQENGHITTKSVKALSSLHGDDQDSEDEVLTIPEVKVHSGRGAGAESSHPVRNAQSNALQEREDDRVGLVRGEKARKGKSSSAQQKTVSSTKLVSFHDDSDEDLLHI

Binder | uptake by the human hepatoma cell line HuH7, compared to wildtype hARSA (internalized enzyme by ELISA) [1] | binding result [2]
hARSA-mutant E424A, P15289 19-507 (enzyme) RPPNIVLIFADDLGYGDLGCYGHPSSTTPNLDQLAAGGLRFTDFYVPVSLCTPSRAALLTGRLPVRMGMYPGVLVPSSRGGLPLEEVTVAEVLAARGYLTGMAGKWHLGVGPEGAFLPPHQGFHRFLGIPYSHDQGPCQNLTCFPPATPCDGGCDQGLVPIPLLANLSVEAQPPWLPGLEARYMAFAHDLMADAQRQDRPFFLYYASHHTHYPQFSGQSFAERSGRGPFGDSLMELDAAVGTLMTAIGDLGLLEETLVIFTADNGPETMRMSRGGCSGLLRCGKGTTYEGGVREPALAFWPGHIAPGVTHELASSLDLLPTLAALAGAPLPNVTLDGFDLSPLLLGTGKSPRQSLFFYPSYPDEVRGVFAVRTGKYKAHFFTQGSAHSDTTADPACHASSSLTAHAPPLLYDLSKDPGENYNLLGGVAGATPEVLQALKQLQLLKAQLDAAVTFGPSQVARGEDPALQICCHPGCTPRPACCHCPDPHA | 20% | –
wildtype human arylsulfatase A (enzyme, Expressed in CHO cells and glycosylated; also called wildtype hARSA; wildtype hASA) RPPNIVLIFADDLGYGDLGCYGHPSSTTPNLDQLAAGGLRFTDFYVPVSLCTPSRAALLTGRLPVRMGMYPGVLVPSSRGGLPLEEVTVAEVLAARGYLTGMAGKWHLGVGPEGAFLPPHQGFHRFLGIPYSHDQGPCQNLTCFPPATPCDGGCDQGLVPIPLLANLSVEAQPPWLPGLEARYMAFAHDLMADAQRQDRPFFLYYASHHTHYPQFSGQSFAERSGRGPFGDSLMELDAAVGTLMTAIGDLGLLEETLVIFTADNGPETMRMSRGGCSGLLRCGKGTTYEGGVREPALAFWPGHIAPGVTHELASSLDLLPTLAALAGAPLPNVTLDGFDLSPLLLGTGKSPRQSLFFYPSYPDEVRGVFAVRTGKYKAHFFTQGSAHSDTTADPACHASSSLTAHEPPLLYDLSKDPGENYNLLGGVAGATPEVLQALKQLQLLKAQLDAAVTFGPSQVARGEDPALQICCHPGCTPRPACCHCPDPHA | – | binds
